# Reference: the supplement of paper PMC9112550, “Optimization of the antimicrobial peptide Bac7 by deep mutational scanning” (BMC Biology, 2022)
# Test system: Escherichia coli TOP10
# Test: shrunken log2 fold change of peptide-encoding DNA abundance (4.5 h post-induction vs induction); higher = less antimicrobial activity (less host growth inhibition)
# Conditions: time post-induction: 4.5 h; library: site-saturation at positions 5, 18, 19, 20
# 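Note: peptides expressed intracellularly from a pBAD plasmid library in pooled LB shake-flask culture, induced with 0.3% L-arabinose, DNA abundance read by NGS, three biological replicates, DESeq2 with apeglm shrinkage.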
row,Sequence,shrunken log2 fold change
1,RRIRNRPPRLPRPRPRPKQDPRP,-0.0415
2,RRIRNRPPRLPRPRPRPKQEPRP,0.0268
3,RRIRNRPPRLPRPRPRPKQMPRP,0.267
4,RRIRNRPPRLPRPRPRPKRGPRP,0.00668
5,RRIRNRPPRLPRPRPRPKRMPRP,-0.056
6,RRIRNRPPRLPRPRPRPKRNPRP,-0.189
7,RRIRNRPPRLPRPRPRPKRRPRP,0.00183
8,RRIRNRPPRLPRPRPRPKTHPRP,-0.298
9,RRIRNRPPRLPRPRPRPKTMPRP,0.177
10,RRIRNRPPRLPRPRPRPKTPPRP,0.228
11,RRIRNRPPRLPRPRPRPKTVPRP,0.0807
12,RRIRNRPPRLPRPRPRPKVEPRP,0.039
13,RRIRNRPPRLPRPRPRPKVKPRP,-0.196
14,RRIRNRPPRLPRPRPRPKWLPRP,-0.00522
15,RRIRNRPPRLPRPRPRPKYLPRP,-0.0259
16,RRIRNRPPRLPRPRPRPKYMPRP,-0.854
17,RRIRNRPPRLPRPRPRPLDGPRP,-0.0308
18,RRIRNRPPRLPRPRPRPLEEPRP,0.216
19,RRIRNRPPRLPRPRPRPLESPRP,-0.0331
20,RRIRNRPPRLPRPRPRPLGKPRP,-0.299
21,RRIRNRPPRLPRPRPRPLGNPRP,-0.248
22,RRIRNRPPRLPRPRPRPLIHPRP,-0.714
23,RRIRNRPPRLPRPRPRPLKSPRP,-0.258
24,RRIRNRPPRLPRPRPRPLLSPRP,0.1
25,RRIRNRPPRLPRPRPRPLMWPRP,-0.175

row,Sequence,shrunken log2 fold change
1,RRIRNRPPRLPRPRPRPLNRPRP,-0.327
2,RRIRNRPPRLPRPRPRPLNYPRP,-0.29
3,RRIRNRPPRLPRPRPRPLPFPRP,-0.153
4,RRIRNRPPRLPRPRPRPLPIPRP,-0.299
5,RRIRNRPPRLPRPRPRPLPMPRP,-0.14
6,RRIRNRPPRLPRPRPRPLPNPRP,-0.0288
7,RRIRNRPPRLPRPRPRPLQGPRP,0.0149
8,RRIRNRPPRLPRPRPRPLQPPRP,-0.187
9,RRIRNRPPRLPRPRPRPLREPRP,0.128
10,RRIRNRPPRLPRPRPRPLRLPRP,0.357
11,RRIRNRPPRLPRPRPRPLRWPRP,1.25
12,RRIRNRPPRLPRPRPRPLSWPRP,0.235
13,RRIRNRPPRLPRPRPRPLTDPRP,-0.193
14,RRIRNRPPRLPRPRPRPLTQPRP,-0.328
15,RRIRNRPPRLPRPRPRPLTYPRP,-0.979
16,RRIRNRPPRLPRPRPRPLVQPRP,-0.28
17,RRIRNRPPRLPRPRPRPLVYPRP,-0.943
18,RRIRNRPPRLPRPRPRPLYKPRP,-0.561
19,RRIRNRPPRLPRPRPRPMACPRP,-0.109
20,RRIRNRPPRLPRPRPRPMDHPRP,0.0184
21,RRIRNRPPRLPRPRPRPMDKPRP,0.00658
22,RRIRNRPPRLPRPRPRPMDPPRP,-0.0437
23,RRIRNRPPRLPRPRPRPMDYPRP,0.0678
24,RRIRNRPPRLPRPRPRPMFAPRP,-0.239
25,RRIRNRPPRLPRPRPRPMGIPRP,-0.454

row,Sequence,shrunken log2 fold change
1,RRIRNRPPRLPRPRPRPMHDPRP,-0.117
2,RRIRNRPPRLPRPRPRPMIYPRP,-0.265
3,RRIRNRPPRLPRPRPRPMKAPRP,-0.158
4,RRIRNRPPRLPRPRPRPMLFPRP,-0.301
5,RRIRNRPPRLPRPRPRPMLSPRP,0.081
6,RRIRNRPPRLPRPRPRPMLTPRP,-0.296
7,RRIRNRPPRLPRPRPRPMQYPRP,-0.267
8,RRIRNRPPRLPRPRPRPMSEPRP,-0.0254
9,RRIRNRPPRLPRPRPRPMSNPRP,0.0527
10,RRIRNRPPRLPRPRPRPMSQPRP,-0.0161
11,RRIRNRPPRLPRPRPRPMTVPRP,-0.12
12,RRIRNRPPRLPRPRPRPMVEPRP,-0.481
13,RRIRNRPPRLPRPRPRPMVLPRP,0.0232
14,RRIRNRPPRLPRPRPRPMVRPRP,4.1
15,RRIRNRPPRLPRPRPRPMYHPRP,-0.248
16,RRIRNRPPRLPRPRPRPMYNPRP,-0.693
17,RRIRNRPPRLPRPRPRPNAEPRP,0.388
18,RRIRNRPPRLPRPRPRPNCGPRP,0.0526
19,RRIRNRPPRLPRPRPRPNCQPRP,-0.182
20,RRIRNRPPRLPRPRPRPNELPRP,0.106
21,RRIRNRPPRLPRPRPRPNFWPRP,0.0138
22,RRIRNRPPRLPRPRPRPNGDPRP,-0.0698
23,RRIRNRPPRLPRPRPRPNIMPRP,-0.599
24,RRIRNRPPRLPRPRPRPNKPPRP,-0.122
25,RRIRNRPPRLPRPRPRPNLCPRP,-0.0109

row,Sequence,shrunken log2 fold change
1,RRIRNRPPRLPRPRPRPNLGPRP,-0.00992
2,RRIRNRPPRLPRPRPRPNMVPRP,-0.385
3,RRIRNRPPRLPRPRPRPNNSPRP,-0.376
4,RRIRNRPPRLPRPRPRPNNVPRP,-0.943
5,RRIRNRPPRLPRPRPRPNPIPRP,0.0101
6,RRIRNRPPRLPRPRPRPNPPPRP,0.143
7,RRIRNRPPRLPRPRPRPNQDPRP,-0.251
8,RRIRNRPPRLPRPRPRPNQHPRP,-0.116
9,RRIRNRPPRLPRPRPRPNQTPRP,-0.0303
10,RRIRNRPPRLPRPRPRPNRAPRP,0.0272
11,RRIRNRPPRLPRPRPRPNRMPRP,-0.385
12,RRIRNRPPRLPRPRPRPNRPPRP,-0.0547
13,RRIRNRPPRLPRPRPRPNTYPRP,-0.971
14,RRIRNRPPRLPRPRPRPNVWPRP,0.0184
15,RRIRNRPPRLPRPRPRPNWGPRP,-0.0231
16,RRIRNRPPRLPRPRPRPPASPRP,0.486
17,RRIRNRPPRLPRPRPRPPCPPRP,0.309
18,RRIRNRPPRLPRPRPRPPEFPRP,-0.144
19,RRIRNRPPRLPRPRPRPPEKPRP,0.0323
20,RRIRNRPPRLPRPRPRPPIWPRP,-0.129
21,RRIRNRPPRLPRPRPRPPKRPRP,0.497
22,RRIRNRPPRLPRPRPRPPLAPRP,0.697
23,RRIRNRPPRLPRPRPRPPLEPRP,0.193
24,RRIRNRPPRLPRPRPRPPMQPRP,0.0237
25,RRIRNRPPRLPRPRPRPPNHPRP,0.0878

row,Sequence,shrunken log2 fold change
1,RRIRNRPPRLPRPRPRPPPCPRP,0.756
2,RRIRNRPPRLPRPRPRPPRKPRP,0.523
3,RRIRNRPPRLPRPRPRPPRYPRP,0.0834
4,RRIRNRPPRLPRPRPRPPTCPRP,-0.221
5,RRIRNRPPRLPRPRPRPPTMPRP,-0.126
6,RRIRNRPPRLPRPRPRPPVSPRP,-0.401
7,RRIRNRPPRLPRPRPRPPWLPRP,0.482
8,RRIRNRPPRLPRPRPRPPWNPRP,0.0711
9,RRIRNRPPRLPRPRPRPPWVPRP,-0.0522
10,RRIRNRPPRLPRPRPRPPYHPRP,-0.362
11,RRIRNRPPRLPRPRPRPPYKPRP,-0.311
12,RRIRNRPPRLPRPRPRPQASPRP,-0.187
13,RRIRNRPPRLPRPRPRPQCHPRP,-0.42
14,RRIRNRPPRLPRPRPRPQCVPRP,-0.0063
15,RRIRNRPPRLPRPRPRPQIAPRP,-0.155
16,RRIRNRPPRLPRPRPRPQIIPRP,-0.106
17,RRIRNRPPRLPRPRPRPQKCPRP,0.0748
18,RRIRNRPPRLPRPRPRPQKRPRP,-0.034
19,RRIRNRPPRLPRPRPRPQNQPRP,-0.212
20,RRIRNRPPRLPRPRPRPQQDPRP,-0.38
21,RRIRNRPPRLPRPRPRPQRPPRP,0.206
22,RRIRNRPPRLPRPRPRPQRTPRP,-0.248
23,RRIRNRPPRLPRPRPRPQSSPRP,-0.0447
24,RRIRNRPPRLPRPRPRPQTPPRP,-0.00271
25,RRIRNRPPRLPRPRPRPQVEPRP,0.0172

row,Sequence,shrunken log2 fold change
1,RRIRNRPPRLPRPRPRPQVMPRP,0.06
2,RRIRNRPPRLPRPRPRPQVRPRP,0.05
3,RRIRNRPPRLPRPRPRPQWIPRP,-0.446
4,RRIRNRPPRLPRPRPRPQWRPRP,0.179
5,RRIRNRPPRLPRPRPRPQYMPRP,-1.16
6,RRIRNRPPRLPRPRPRPRAKPRP,0.0711
7,RRIRNRPPRLPRPRPRPRANPRP,0.0572
8,RRIRNRPPRLPRPRPRPRASPRP,0.211
9,RRIRNRPPRLPRPRPRPRCKPRP,0.0547
10,RRIRNRPPRLPRPRPRPRDSPRP,0.0829
11,RRIRNRPPRLPRPRPRPRDWPRP,0.0384
12,RRIRNRPPRLPRPRPRPREKPRP,0.377
13,RRIRNRPPRLPRPRPRPRFSPRP,0.0393
14,RRIRNRPPRLPRPRPRPRGYPRP,-0.846
15,RRIRNRPPRLPRPRPRPRHCPRP,0.00979
16,RRIRNRPPRLPRPRPRPRHDPRP,0.0353
17,RRIRNRPPRLPRPRPRPRHNPRP,-0.403
18,RRIRNRPPRLPRPRPRPRKFPRP,-0.101
19,RRIRNRPPRLPRPRPRPRKWPRP,0.416
20,RRIRNRPPRLPRPRPRPRLDPRP,0.0403
21,RRIRNRPPRLPRPRPRPRLKPRP,-0.00493
22,RRIRNRPPRLPRPRPRPRPLPRP,0.402
23,RRIRNRPPRLPRPRPRPRPMPRP,0.522
24,RRIRNRPPRLPRPRPRPRQDPRP,0.0815
25,RRIRNRPPRLPRPRPRPRTFPRP,-0.078
